Results on 10 molecules are retold here after patent US20250296984A1 (THELPER, published 2025).

Where two headings read alike, the source gives them in different places. Where no end group is shown, it is not given here. The star is where a group is joined. Biotin = O=C1N[C@H]2[C@H](CS[C@H]2CCCCC(=O)*)N1

Assay [1] deals with T1, US28 of HCMV strain DB fused to a C-terminal 6His tag (human cytomegalovirus (HCMV) strain DB, UniProt P69332 1-354).
T1 chain: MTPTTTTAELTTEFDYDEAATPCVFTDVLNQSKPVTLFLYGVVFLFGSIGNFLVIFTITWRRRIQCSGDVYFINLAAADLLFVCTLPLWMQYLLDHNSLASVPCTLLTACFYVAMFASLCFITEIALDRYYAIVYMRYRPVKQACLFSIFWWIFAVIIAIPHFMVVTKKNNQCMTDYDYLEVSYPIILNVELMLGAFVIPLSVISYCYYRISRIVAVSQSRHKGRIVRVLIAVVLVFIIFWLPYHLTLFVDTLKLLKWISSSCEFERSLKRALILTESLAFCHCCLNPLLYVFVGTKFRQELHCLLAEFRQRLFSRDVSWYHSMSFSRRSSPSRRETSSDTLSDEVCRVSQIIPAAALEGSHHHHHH
The assay can be described thus: flow cytometry, CHO-US28 against control CHO cells. (Flow cytometry measures light scatter and fluorescence of single cells or particles in a stream.)

The target of assay [2] is T2, US28 of HCMV strain VHL/E fused to a C-terminal 6His tag (human cytomegalovirus (HCMV) strain …, UniProt P69332 1-354).
T2 construct: also called VHL/E-encoded US28
T2 chain: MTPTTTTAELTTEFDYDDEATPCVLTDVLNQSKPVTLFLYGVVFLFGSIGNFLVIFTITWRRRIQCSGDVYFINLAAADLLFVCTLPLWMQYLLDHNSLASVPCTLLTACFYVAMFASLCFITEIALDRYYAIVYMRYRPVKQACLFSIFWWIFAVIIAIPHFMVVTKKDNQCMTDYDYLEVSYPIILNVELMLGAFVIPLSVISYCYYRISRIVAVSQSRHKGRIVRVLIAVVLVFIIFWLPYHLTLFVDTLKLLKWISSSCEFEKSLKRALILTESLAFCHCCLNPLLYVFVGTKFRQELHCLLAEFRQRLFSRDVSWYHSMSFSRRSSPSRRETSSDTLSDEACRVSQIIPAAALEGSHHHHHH
Kind of assay: flow cytometry, processed data of FIG. 33; reference.

Assay [3] deals with T3, US28 of HCMV strain TB40/E fused to a C-terminal 6His tag (human cytomegalovirus (HCMV) strain …, UniProt P69332 1-354).
T3 construct: also called TB40/E form of US28
T3 chain: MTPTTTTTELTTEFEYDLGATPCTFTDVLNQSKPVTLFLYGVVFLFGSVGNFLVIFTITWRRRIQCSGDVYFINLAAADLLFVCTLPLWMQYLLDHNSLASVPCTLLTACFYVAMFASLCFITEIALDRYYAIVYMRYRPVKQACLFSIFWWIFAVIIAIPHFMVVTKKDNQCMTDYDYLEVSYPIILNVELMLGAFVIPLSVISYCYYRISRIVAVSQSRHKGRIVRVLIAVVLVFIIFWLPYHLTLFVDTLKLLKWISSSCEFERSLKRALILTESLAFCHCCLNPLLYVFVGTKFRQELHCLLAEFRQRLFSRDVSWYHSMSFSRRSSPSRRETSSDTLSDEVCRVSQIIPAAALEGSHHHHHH
Kind of assay: flow cytometry, transfected HEK Phoenix cells, 6.76 nM.

Assay [4] concerns the target T4, US28 of HCMV strain Merlin fused to a C-terminal 6His tag (human cytomegalovirus (HCMV) strain …, UniProt F5HF62 1-354).
T4 construct: also called Merlin-encoded US28
T4 sequence: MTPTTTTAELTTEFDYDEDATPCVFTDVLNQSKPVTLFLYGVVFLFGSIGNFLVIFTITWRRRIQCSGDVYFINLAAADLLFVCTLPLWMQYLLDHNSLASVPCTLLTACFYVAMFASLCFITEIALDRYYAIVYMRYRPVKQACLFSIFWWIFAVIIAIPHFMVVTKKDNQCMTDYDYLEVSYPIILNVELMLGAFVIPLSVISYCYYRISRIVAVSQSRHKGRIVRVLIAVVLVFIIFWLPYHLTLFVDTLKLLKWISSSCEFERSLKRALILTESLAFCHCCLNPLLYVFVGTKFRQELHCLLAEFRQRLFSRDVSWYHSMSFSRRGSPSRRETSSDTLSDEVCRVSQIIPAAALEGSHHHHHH
The assay is described as above.

The target of assay [5] is T2, US28 of HCMV strain VHL/E fused to a …. The assay is described as above.
The target of assay [6] is T1, US28 of HCMV strain DB fused to a …. The description is as above.
For assay [7], the target named is T3, US28 of HCMV strain TB40/E fused to a …. Kind of assay: flow cytometry, processed data of FIG. 33.
Assay [8] concerns the target T4, US28 of HCMV strain Merlin fused to a …. The assay can be described thus: flow cytometry, processed data of FIG. 33.
The target in assay [9] is T1, US28 of HCMV strain DB fused to a …. The assay can be described thus: flow cytometry, processed data of FIG. 33.
Assay [10] shares this target. Kind of assay: flow cytometry, CHO-US28 against control CHO cells.
For another assay, the target named is T5, Bio-Peptide-1 (human cytomegalovirus (4N variant, e.g. …)).
T5 construct: also called US28 ECD3 genotype 4N peptide
T5 peptide: Biotin-TKKNNQCMTDYDYLEVS
Kind of assay: ELISA, Bio-Peptide-1 coated. In general terms: In an ELISA, binding on a coated surface is turned into a signal by an enzyme label.

B1: US28-4-4H3C3 (antibody, mouse IgG1, kappa, V domains shown)
VH: QVQLQQSGAELAKPGASVKMSCKASGYTFTSYWMHWVKQRPGQGLEWIGYINPSTGYAEYNQKFKDKATLTADKSSSTAYMQLSSLTSEDSAVYYCARLRFGSSGFAYWGQGTLVTVSS
VL: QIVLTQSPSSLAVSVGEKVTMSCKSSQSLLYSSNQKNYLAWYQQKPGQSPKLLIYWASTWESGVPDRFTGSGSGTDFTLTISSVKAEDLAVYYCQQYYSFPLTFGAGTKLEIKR
B1: the “binding specificity comparative to the specificity displayed by VUN100” value (from here on “binding specificity comparative”) in assay [1] is 3.35 fold.

B2: 4H3C3-Myc (antibody, V domains shown)
VH: QVQLQQSGAELAKPGASVKMSCKASGYTFTSYWMHWVKQRPGQGLEWIGYINPSTGYAEYNQKFKDKATLTADKSSSTAYMQLSSLTSEDSAVYYCARLRFGSSGFAYWGQGTLVTVSS
VL: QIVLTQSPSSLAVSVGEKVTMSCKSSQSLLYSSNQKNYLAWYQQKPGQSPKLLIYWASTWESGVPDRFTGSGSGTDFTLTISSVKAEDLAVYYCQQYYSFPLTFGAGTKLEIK
Consider B2, for which the “variation in binding relative to US28 as encoded by VHL/E” value (from here on “variation in binding relative to US28”) in [2] was 0; in [7] it was -0.16; in assay [8], -0.38; in assay [9] it was 0.59. Further, the “binding value (Preliminary Binding Data)” value worked out at 0.14 in assay [3], 0.12 in assay [4], 0.16 in assay [5] and 0.37 in [6].

B3: US28-14-4E4-1E8 (antibody, mouse IgG1, kappa, V domains shown)
VH: EVKLVESGGDLVKPGGSLKLSCAASGFTFSSYAMSWVRQTPEKRLEWVASISSGGRTYYPDSVKGRFTISRDNARNILYLQMSSLRSEDTAIYYCARGGTRHSYGNGFDYWGQGTTLTVSS
VL: QIVLSQSPTIMSASPGEKVTMTCSASSSVSYMHWYQQKSGTSPKRWIYDSSKLASGVPARFSGSGSGTSYSLTISSMEAEDAATYYCQQWTSNPPITFGAGTKLELKR
With B3, in [10], the “binding specificity comparative” value came out at 4.6 fold. In the assay with Bio-Peptide-1, the absorbance came to 2.99.

B4: US28-13-1C10-1G9 (antibody, mouse IgG1, kappa, V domains shown)
VH: EVKLVESGGGLVKPGGSLKLSCAASGFTFSSYAMSWVRQTPEKRLEWVASISSGGSTYYPDSVKGRFTISRDNARNILYLQMSSLRSEDTAMYYCARGGSTMITTGLGFAYWGQGTLVTVSA
VL: QIVLTQSPAIMSASPGEKVTMTCSASSSVSYMHWYQQKSGTSPKRWIYDTSKLASGVPARFSGSGSGTSYSLTISSMEAEDAATYYCQQWSSNPPLTFGAGTKLELKR
Molecule B4 came in with an absorbance with Bio-Peptide-1 of 3.11.

B5: US28-13-1H3-1A10 (antibody, mouse IgG1, kappa, V domains shown)
VH: EVKLVESGGVLVKPGGSLKFSCAASGFTLSSHALSWVRQTPEKRLEWVASISSRGRTYYPDSVKGRFTVSRDNARNILYLQVSSLRSEDTAMYYCTRGGTHYSYGNGFDFWGQGTTLTVSS
VL: QIVLTQSPAIMSASPGEKVTMTCSVSSSVSYMHWYQQKSGTSPKRWIYDTSKLASGVPARFSGSGSGTSYSLTISTMEAEDAATYYCQQWSNNPPITFGAGTKLELKR
notes: also called 14-1H3-1A10
As for B5, the “binding specificity comparative” value in assay [10] was 2.29 fold. Further, the absorbance with Bio-Peptide-1 is 3.

B6: US28-13-1C10-1C10 (antibody, mouse IgG1, kappa, V domains shown)
VH: EVKLVESGGVLVKPGGSLKFSCAASGFTFSSHALSWVRQTPEKRLEWVASISSRGRTYYPDSVKGRFTVSRDNARNILYLQVSSLRSEDTAMYYCTRGGTHYSYGNGFDFWGQGTTLTVSS
VL: QIVLTQSPAIMSASPGEKVTMTCSVSSSVSYMHWYQQKSGTSPKRWIYDTSKLASGVPARFSGSGSGTSYSLTISTMEAEDAATYYCQQWSNNPPITFGAGTKLELKR
As to B6, the “binding specificity comparative” value in [10] was 1.74 fold. The molecule also displayed an absorbance with Bio-Peptide-1 of 3.11.

B7: US28-4-7B1F3 (antibody, mouse IgG1, kappa, V domains shown)
VH: EVQLQQSGAELAKPGASVKMSCKASGYTFTNYWMHWVKQRPGQGLEWIGYVNPRTGYTEYNQKFKDKATLTADKSSRTAYMQLSSLTSEDSAVYSCARILNGTGFAYWGQGTLVTVSA
VL: DIVLTQSPSSLTVSVGEKFTMSCKSSQSLLYSSNQKNYLAWYQQKPGQSPKLLIYWASTRESGVPDRFTGSGSGTDFTLAISSVKPEDLAIYYCQQYYSFPLTFGAGTKLEIKR
notes: also called mouse 7B1F3; mouse7B1F3
B7: the “binding specificity comparative” value in [1] is 1.67 fold.

B8: 7B1F3-Myc (antibody, V domains shown)
VH: EVQLQQSGAELAKPGASVKMSCKASGYTFTNYWMHWVKQRPGQGLEWIGYVNPRTGYTEYNQKFKDKATLTADKSSRTAYMQLSSLTSEDSAVYSCARILNGTGFAYWGQGTLVTVSA
VL: DIVLTQSPSSLTVSVGEKFTMSCKSSQSLLYSSNQKNYLAWYQQKPGQSPKLLIYWASTRESGVPDRFTGSGSGTDFTLAISSVKPEDLAIYYCQQYYSFPLTFGAGTKLEIK
B8: the “variation in binding relative to US28” value in [2] came out at 0; in [7] it was 0.14; in assay [8] it was 0.21; in assay [9] it was 0.64. The “binding value (Preliminary Binding Data)” value was found to be 0.42 in assay [3], 0.45 in [4], 0.37 in assay [5] and 0.91 in [6].

B9: US28-4-2F5B11 (antibody, mouse IgG1, kappa, V domains shown)
VH: EVQLQESGAELAKPGASVKMSCKASGYTFSSYWIHWIKQRPGQGLEWIGYINPNTAYTEFNQKFMDKATLTADKSSSTAYMQLTSLTSEDSAVYYCARLRSDRTGFAYWGQGTLVTVSA
VL: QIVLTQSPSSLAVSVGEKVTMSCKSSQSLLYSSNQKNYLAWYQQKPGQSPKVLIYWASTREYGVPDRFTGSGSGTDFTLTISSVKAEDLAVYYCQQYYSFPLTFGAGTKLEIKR
On to B9, for which the “binding specificity comparative” value in [1] is 4.21 fold.

B10: 2F5B11-Myc (antibody, V domains shown)
VH: EVQLQESGAELAKPGASVKMSCKASGYTFSSYWIHWIKQRPGQGLEWIGYINPNTAYTEFNQKFMDKATLTADKSSSTAYMQLTSLTSEDSAVYYCARLRSDRTGFAYWGQGTLVTVSA
VL: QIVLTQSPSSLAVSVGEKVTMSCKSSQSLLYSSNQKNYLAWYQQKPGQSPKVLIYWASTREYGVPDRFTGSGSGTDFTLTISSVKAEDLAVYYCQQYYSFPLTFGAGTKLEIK
With B10, the “variation in binding relative to US28” value in assay [2] is 0; in assay [7], -0.92; in assay [8], 0.01; in assay [9], -0.04. Also, the “binding value (Preliminary Binding Data)” value in [3] came to 0.57; in assay [4], 1.09; in assay [5], 1.08; in assay [6], 1.04.
